Assay results published in article PMC7671560, “SAXS studies of X-ray induced disulfide bond damage: Engineering high-resolution insight from a low-resolution technique” (PLoS ONE, 2020).

Target: the molecule itself
Assay: SEC; Superdex 200 10/300 in 20 mM Tris-HCl pH 7.5, 50 mM NaCl, 5 mM EDTA; 100 uL at about 5 mg/ml injected; elution times compared to a standard curve; monomer to disulfide-linked dimer

B1: endoHCYS (FRAGCYS-endoH-His6; Endoglycosidase-H with a 7 aa cysteine-containing fragment on its N-terminus) (enzyme)
chain: SLSTGCYVKQGPTSVAYVEVNNNSMLNVGKYTLADGGGNAFDVAVIFAANINYDTGTKTAYLHFNENVQRVLDNAVTQIRPLQQQGIKVLLSVLGNHQGAGFANFPSQQAASAFAKQLSDAVAKYGLDGVDFDDEYAEYGNNGTAQPNDSSFVHLVTALRANMPDKIISLYNIGPAASRLSYGGVDVSDKFDYAWNPYYGTWQVPGIALPKAQLSPAAVEIGRTSRSTVADLARRTVDEGYGVYLTYNLDGGDRTADVSAFTRELYGSEAVRTP
notes: 7 aa fragment with a single free cysteine ('FRAGCYS') attached to the flexible N-terminus of endoH; Endoglycosidase-H (endoH), P04067, aa 47-313; has no native cysteines; The chain is written once as the protomer; two protomers join through an intermolecular disulfide between the cysteines of FRAGCYS (about 75% dimer, 25% monomer in the preparation); The structure's own numbering has Val-8 as the …
stoichiometry N: 2
